Here are results for 24 sequences from the DeepSol protein solubility set.

A short description of this series: soluble on expression in E. coli; label from the status in PepcDB or PDB records.
“ANEVNVYSYRQPYLIEPMLKNFEKDTGIKVNIIFADKGLVDRVKQEGELSPADVLLTVDISRVMEIVNADLAQKIDSKVLEKNIPAQFRDSNDQWFGLTTRARVIYTSKDRVGKLPAGFDYLDLAKPEYKGKVCVRSGKNSYNVSLFAAMIEHYGIEKTKAFLEGLKANLARKPQGGDRDQVKAIKEGICDYSIGNSYYYGKMLDDEKQKSWAEAAIINFPSGEHGTHKNISGVVIAKHSPNKANAVKLIEYLSGEKAQGLYAELNHEYPVKEGIEPSAIVKGWGTFKSDTIKLEDIAKNYEAALKLVDEVKFDDFSEKK”: the “soluble on expression in E. coli” value is listed as “soluble”. Take “AKPIDVSRLDLRIGCIITARKHPDADSLYVEEVDVGEIAPRTVVSGLVNHVPLEQMQNRMVILLCNLKPAKMRGVLSQAMVMCASSPEKIEILAPPNGSVPGDRITFDAFPGEPDKELNPKKKIWEQIQPDLHTNDECVATYKGVPFEVKGKGVCRAQTMSNSGIKLEHHHHHH”: the “soluble on expression in E. coli” value is “soluble”. Turning to “MKKIIAILLLVIGSIGIGKDLDQYESKRVFDKIIEVALTGDYEKYKNDKEMTNALEELVKASEYLDVHRIFSDGNKYIVLDVEEQGNRSILTVKAVYKIYRDISEEKYRQIMEREVLELMKYDMEEIDEKTYKKNVYNIITDIAGNDFEIKEEVIKMNMIKKEKWDMEDNSDLIQRLYPAIFYMMESLNKRYFKTSEEGNI”, the “soluble on expression in E. coli” value is “not soluble”. With “MGSDKIHHHHHHMEMEFNENNIDLETIIRDEVNKYLSRDIGDLPATQQAPLELREKYEKMEVPNKGRDIYEVLKDLNNEVLNYLYRPNHPRSFSFIPGPASRLSWLGDILTTANNIHASNFANATLPINIERNLINYLVGKIGYEIKPAGGVFVSGGSMANLTAIVAARDAQVEMEDIKKATVYLTSQTHHSVGKALHVAGFLKNNIRRIEYNDDFTMNTDSLKAAIDKDIEEGYKPAMVIATAGTTNTGSVDDFTTLGDICDHYNLWLHVDGAYGLSHILSDKAQHLFKGIERSDSASWDAHKLLFQTYSCAMVIVKEKNHLLQSFGEDAEYLDDIASDDDVIDPEMLGIELTRPARALKLWITLQVIGEDEIIERIKYGEGLAEYAEEYVSSLDNWRIISHANLSIVNFRYENSDLTEAQNNQLNSMAAQKIADSGYAIAYTTVLNNQRVIRLCTTNPLTTHDDIRETINRLDQYIGDYDMKDA”, the “soluble on expression in E. coli” value is “not soluble”. Take “MQDRIFAFTPKGSLFQLPKGATPIDFAFAVHTNLGAQAVGAKINGRHVPLRTPLGNGDVVEIIKSRTSEPQLEHHHHHH”: the “soluble on expression in E. coli” value was “not soluble”. For the sequence “MGSDKIHHHHHHMLGSNMLLTNRIDLRSYHTESCSHTHDFAQLVLPVSGSMELEVGHYSGVVNDDIGVYIAPNEQHCFAGSQKNLFLVIDATTQNSLRDEAFESNILNLTASTKKLIQFTHHYLAHNERDFFTDSLINQLLFHFAASSFSPEPDLVVIRAKQWIDLYFADSVNVNRVAKHCYLSISQLQRRFKQMLGCGIAEYWRMKKLLHAKKLLSQKNCSIEAIAFEVGYENLPAFSRRFSKVFGESPSQWRSKALTAKKMREIDK”, the “soluble on expression in E. coli” value is given as “not soluble”. “MTREAFAPYQCLATDLLKYLPSDQNDGSHDLAHIHRVWVNAHRIQRVEGGDLEILLAATVLHDCVAVEKHSPLRGQASTLSANKAASVLAEMGWPSGRVEQVVHAIKTHSYSAGFEPLTREACILQDSDRLDAIGAVGIARCFYVAGRMGSALYDFENPFAQQRAYQDGAYAIEHFQTKLLKLASGFKTQEGARLAAERHTRLETFLTQFMDEITGAGLEHHHHHH”: the “soluble on expression in E. coli” value is “soluble”.

In the case of “MGSDKIHHHHHHMTQKTLPPLNWLRAFEVSARYLNFTHAAEELHLTQGAVSQQIRHLESQLGVALFKRLPRGLGLTEEGQSYLPVVQDAISRLAVGTNEIFGQRQRRPLKVRGSLSFLHFWLAPRLADFRRSHPQVDIRYISNLWVKELDAEDDLEIRWGSGQWAGVEAQRLTRDMLVPVCAPALLAGCPLREPRDLARVPLLHVLGYEEGWGYWLERVGADQVDSSSGLQFDTLVSTLRMAELGLGVALARSSLVEDLLQEGRLVAPFAQRIEASESFFLVRGLGEALSPDAQAFSHWLVAMAHR”, the “soluble on expression in E. coli” value is “not soluble”.

In the case of “MDKTVFQQDLAPYVKYSLNKKKRWETGNDKNYLSEVQKRYRGMDMFVIDRVRLNSSPYFCFISRENFFHNYFLQFPIRQLHQLNADNSYSYVYANQTYGQSYKSLQPENRSPSKSKSAKKPELYQNAKVAYHIITPPKNYEKLQAPKFCPGSSDRNLTHRTLTHWRRVKRMRDALLSLRYEKFEVLDEEVDMVDDYLIFDQYDPPRKLLV”, the “soluble on expression in E. coli” value is “not soluble”. For “MSLDLFSWAAAQQAAQSAPLAARMRPQTLDEFVGQEHLVGPGRFLRRALEAGHLPSCILFGPPGTGKTTLARLMASNVNAHFEQLNAVTSGVQDIRRIVDEARARLAERGQKTVVFIDEIHRWRKDQQDALLPHVEDGLITLVGATTQNPLVSVNAPLVSRTRIFELKPLSDEHIAHLLDRALRTPGRGLGNYNATVTPEAMEHLVRMAGGDARAALNALELAVLLTQPDEQGRRTVTLETAEEALLKRAVVYDHDGDEHYHVASALIKSIRGSDPDAALYWLARMLYAGEDPRFIARRLVISAAEDIGLADPQALVIAQAAADAVSFIGMPEGRIPLAEAVVYLACAPKSNSAYLAIDRALAVVEREKTPPVPNHLKDTGYGSDQRLGYGKGYQYPHDFPGAWVEQRYLPEGVDGPFWEPKGYGREAELARLLRERRGREGHHHHHH” the value was “not soluble”; for “MGHHHHHHSHMSVSVHENRKSRASSGSINIYLFHKSSYADSVLTHLNLLRQQRLFTDVLLHAGNRTFPCHRAVLAACSRYFEAMFSGGLKESQDSEVNFDNSIHPEVLELLLDYAYSSRVIINEENAESLLEAGDMLEFQDIRDACAEFLEKNLHP”, “not soluble”. For “MDIEIENHPLEPFLPANARLLMLGSFPPQKKRWSMDFYYPNLNNDMWRIVGLLFFNNKDYFLNETRKAFCRERIISFLNDKGIALFDTASAIRRLQDNASDKFLEVVQPTDISRLLGQLPECKAIVTTGQKATDTLRAQFEVEEPKVGDFSEFVFDGRPVRLYRMPSSSRAYPLALDKKAAAYRTMYQDLQMLNIELEHHHHHH” the value was “soluble”. Regarding “MSLMTSVVPSFCHQDRRSNQRMKGLSPLAMAQVVTLGVLEPRAQGAVRWRRCWPERSTVGAIEAQRHWRPYLELSWAEKQQRDERQSQRASRVREEMFAKGQPLAPYNTTQFLMNDRDLEEPNLDVLHGPSHSGSGGENEAGDSDGQGRAHGEFQQRDFSEAYERYHTESLQGRSKQELVRDYLDLERRLSQAEQETRRLRQLQGCSSRQPCQQVEELAAEVERLRTENQRLRQENEMWNREGGYCDQEKPASEGTPWPKVEAPFQTHTGQLGHREAGDR”, the “soluble on expression in E. coli” value is on record as “soluble”.

Regarding “MSLALNLSKAVVGYLQVRPEEKFTARQIAEWVFATYPAECQEKRANSRGDYIKSDADLVQQLVAEISSQRPRMQMKHPALKTTEGRPRKYYYSEKSDSAEVAAAEGEGATAAADIGTSMLDEHALYPLLSQYLWEEFGVFSKRINEKRSSNKRGPNGNRWLYPDMVGMQDLGADWHREVRDCVKQYSDKRTKLWSFEVKLLINRSNIRECFFQAVSNSSWSNFGYLVAAEVSGQETLKELRMLFAAHGIGFIRLDVDNPADSQVLIPARERDAIDWDMANRLATENRDFLNYVKQVKQFYQTGEARFKDWDVPEEYSIQEGHHHHHH”, the “soluble on expression in E. coli” value is “soluble”. Turning to “MKGQVVSLHLGLGSGLPKPRVEALELVAGFGAKGDRHAGKDPDRAVLVAGLSAYEKAQGAGIPLPYGALGENLLLDLDPHALPPGARLRVGEALLELSQVCPVCKSLSQFDLRLPKLLYGGRGVYARVLEGGVVRVGDPVLVLAPAR”, the “soluble on expression in E. coli” value is recorded as “soluble”. As for “MGSDKIHHHHHHMIRKIIKIDKEKCNGCGACASACHEGAIDIIDGKAELVREHFCDGLGDCLPECPTGAISFEERDAPAYDEEAVKEAQKKIAAKNRAISSHSGCPGSKIMQIRRTETSEPVKATSTADSGSKLQNWPVQIKLAPVNAPYFNGSKLLIAADCTAYAYAAFHQDFIRNKVTLIGCPKLDQVDYSEKLTAIIQNNSIQSVTIVRMEVPCCGGLEIAAKKALQASGKFIPWQVVTISIDGKIME”, the “soluble on expression in E. coli” value was “not soluble”. For the sequence “MAMSIELRTKYGQIDISNEVIAMVAGGAAVDCYGIVGSKNQIKDGLTEILRKENFSRGVQVRQEGEQIHIDMYIIVSYGTKISEVAHNVQTKVKYTVNQTIGLAVDSVNIYVQGVRVTNPLEHHHHHH”, the “soluble on expression in E. coli” value was “not soluble”. Consider “MTAGEVLSQSEIDALLAALSAGEMSAEELKKEEEGRRVKTYDFRRALRFSKDQIRSLTRIHENFARLLTTFFSAQLRTYVQISVASADQIPYEEFVRSIPKMTIINVFEVPPLGGHVLLEVNPNIAYAMLDRVMGGRGVGMDKVEHLTEIETRIMSNLFDKAFVHWRDAWESVAEVDPLFVDFEVNPQFLRMIAPNDTVVVISLNTQIGEARGMMNVCIPHVVLEPIMPRLSVHYWMQAQKKERSPEEAKRIEQRIRAAKLPIIAELGTAVITVNEFLQLEAGDVIQLEQSIHEPLVVKIGHIPKFIGQPGKRNKKLAVQILAMIEGDEDDHDE”, for which the “soluble on expression in E. coli” value is listed as “not soluble”. As for “MTKGSPGDTPDKASDRAARGASDASDASDAWRRWHEQRVATVSAPYGPLALTGTHWLEDHPDGQLPDIPGRWTTDGDAVLLTAGRADGLTVDGRLLDGEARLTADRGPVGAARVARGERRLVVLVREGLWGVRDFDPAAPARRAFRGIAATPYDPRWSVPGRFTPYDTGRRSVRVPNADGRERGLALGGELAFELDGRAHTLQVGVEDDGSLWAVFADATSGSTSYRFRFLRPAAPDAEGRTTVDLNRALLPPCAFADHFVCPFPPPGNTLGARVEAGERELRLEHHHHHH”, the “soluble on expression in E. coli” value was “soluble”. As for “MKIHKTLTPWAAALLLASTAWPALAEVSTVRLAKQFGIGYLPLTLVEELDLLEKHAAASGHEITTEWLRFTGGSGMNEALLSGNLDLAAGGTGPLFTIWARTRENLKIKGVAALASMPLHLMTSNPEVKSLADFSQGDKIALPAVKTSIQAVTLQMASKQAFGPDKATAMDAFTVSMGHPDAQLALTGGQSEVTAHFGSPPFQNLEAKVEGIHKVLDSYDVLGGSHTFTVVWAADKFISENPEITKAFMAALEESMELISTNPEKAAEIWMAAERSPLSREEVVALIRDEQTVWTTTPERTLPYVEFLSESGLIKTSAEDWSEIFFDTMSGKEGS”, the “soluble on expression in E. coli” value was “not soluble”. Turning to “AHHHHHHGSSKDRMVELLQEHFELNLYEARAYVALVAFGVLTPAELASVSEVPAPRTYDVLRSLEKKGFAMTQPGKTNKYRPVHPANVLEKFIQDWQERVKEELEAKKKAKEELLELMAPLIETEVPKYGVERVWVVRGIKNSTLKTKEMLEEAQNEILLADDGFIAVNLEDDIIKAVDRGVKTKILLTKNLLPRLKASKIIDYAKEGKLELRALDKFDLPMLICDEEVFFALEDLAARYFNYETQVWIKDHRVVALFKEKFNEYWEKAEKV”, the “soluble on expression in E. coli” value was “soluble”. As to “MVNLTRIYTRTGDKGTTALGDMSRVPKTDLRISAYADANEANAVIGTAIALGGLPEEVVKVLVRVQNDLFDVGADLSTPVVENPEYPPLRVEQFYVDKLEADCDRYLAEVEKLRSFILPGGTAGAALLHQACTVVRRAERSTWAALEAHGETMNPLTATYLNRLSDLLFILARVANKEVGDVLWVPGGERLEHHHHHH”, the “soluble on expression in E. coli” value is given as “soluble”.

Consider “MNQKIYWDELKEGEQFSYGHYQVSEHENIDFAKRYDPMEFHVDPEKAKLSPIGALCASGIHTLGIMQRLTFDNIYTNWHIVAGRELRKCQFRLPVFVDDCLTVNMTIAKLSVDTRSDRGNAELTFDVKNAKGKTVLEVEGEIVLQRFPSILEHHHHHH”, for which the “soluble on expression in E. coli” value is reported as “not soluble”. For “MRDSLNNGVSLQQAQETYFAKFNHYSYMAHFVAKILGQRPSHVLSGWGVSELIVAYGHYANEQSYQNFMDWKSSQENAPKPKQPQPFVVQFISQDELEEVE” the value was “not soluble”.
